Where no end group is shown, it is not given here.
T1: full-length mouse kindlin2 (mouse, UniProt Q8CIB5 1-680)
T1 construct: full-length mouse kindlin2, cloned into pET28a with 10xHis-SUMO tag and HRV-3C site at the N-terminal; also called kindlin2 protein; source: Escherichia coli Rosetta(DE3), purified (IMAC, tag cleavage by HRV 3C, SEC); not shown: 10xHis, N-terminal, cleaved; SUMO, N-terminal, cleaved
T1 sequence (looked up): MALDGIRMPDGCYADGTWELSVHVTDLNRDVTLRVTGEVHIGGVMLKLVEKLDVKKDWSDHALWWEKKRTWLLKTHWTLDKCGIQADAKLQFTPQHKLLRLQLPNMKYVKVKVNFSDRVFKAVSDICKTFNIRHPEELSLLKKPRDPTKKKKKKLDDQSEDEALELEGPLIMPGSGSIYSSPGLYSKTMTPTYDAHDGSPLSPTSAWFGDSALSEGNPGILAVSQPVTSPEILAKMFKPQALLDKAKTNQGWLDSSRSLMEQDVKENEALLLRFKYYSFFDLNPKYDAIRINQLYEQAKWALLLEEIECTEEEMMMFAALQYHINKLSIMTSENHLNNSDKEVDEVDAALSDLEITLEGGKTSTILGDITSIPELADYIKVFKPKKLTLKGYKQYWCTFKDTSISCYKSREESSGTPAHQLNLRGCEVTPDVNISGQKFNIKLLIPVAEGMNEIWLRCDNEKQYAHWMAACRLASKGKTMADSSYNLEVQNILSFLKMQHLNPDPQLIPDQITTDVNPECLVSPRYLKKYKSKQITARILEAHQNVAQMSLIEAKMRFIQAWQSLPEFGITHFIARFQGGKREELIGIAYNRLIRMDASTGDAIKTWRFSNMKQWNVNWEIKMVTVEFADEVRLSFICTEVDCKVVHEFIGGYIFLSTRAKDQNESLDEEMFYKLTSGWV


Molecular target: T1, full-length mouse kindlin2
Assay: MST; Monolith NT.115; FITC-labeled tail peptide constant at 10 µM, kindlin2 titrated 42.5 to 0.0013 µM; 20 mM Tris pH 7.5, 200 mM sodium chloride, 1 mM TCEP, 5% glycerol; 10-20% LED power; Kd model
Conditions: both partners purified

Row | Kd [µM] | Binder
1 | 0.42 | KLLMIIHDRREFAKFEKEKMNAKWDTGENPIYKSAVTTVVNPKYEGK (peptide, UniProt P05556 752-798, looked up, also: FITC label, position not given here, cytoplasmic tail of integrin β1; also called cytoplasmic tail of integrin β1; integrin β tail peptide; source: synthetic peptide, synthesized by Sangon Biotech) [FITC-labeled cytoplasmic tail of wildtype integrin β1]
2 | 26.6 | FITC-labeled cytoplasmic tail of wildtype integrin β6 (peptide, UniProt P18564 731-788, looked up, also: FITC label, position not given here, cytoplasmic tail of integrin β6; also called cytoplasmic tail of integrin β6; integrin β tail peptide; source: synthetic peptide, synthesized by Sangon Biotech) peptide: KLLVSFHDRKEVAKFEAERSKAKWQTGTNPLYRGSTSTFKNVTYKHREKQKVDLSTDC
